Biological target: Ribosome termination complex (70S ribosomes, fMet-STOP mRNA and fMet-tRNA^fMet) (E. coli)
Assay: with RF3:GDP

B1: Fluorescein-labeled GAQ-RF1 (single-cysteine L82C or A220C) (natural protein)
chain: MKPSIVAKLEALHERHEEVQALLGDAQTIADQERFRALSREYAQLSDVSRSFTDWQQVQEDIETAQMMLDDPEMREMAQDELREAKEKSEQLEQQLQVLLLPKDPDDERNAFLEVRAGTGGDEAALFAGDLFRMYSRYAEARRWRVEIMSASEGEHGGYKEIIAKISGDGVYGRLKFESGGHRVQRVPATESQGRIHTSASTVAVMPELPDAELPDINPCDLRIDTFRSSGAGAQHVNTTDSAIRITHLPTGIVVESQDERSQHKNKAKALSVLGARIHAAEMAKRQQAEASTRRNLLGSGDRSDRNRTYNFPQGRVTDHRINLTLYRLDEVMEGKLDMLIEPIIQEHQADQLAALSEQE
modifications: fluorescein (fluorescein-maleimide) on the introduced cysteine
With B1 the koff was 0.08 s⁻¹.

Source: paper PMC3988563 (2014)
